Our source for the Km and kcat values is PMC10138680, “Identification and Functional Analysis of Tartrate-Resistant Acid Phosphatase Type 5b (TRAP5b) in Oreochromis niloticus” (International Journal of Molecular Sciences, 2023).

For this data set, the system named is T1, O=[N+]([O-])c1ccc(OP(=O)(O)O)cc1.
T1 construct: mature peptide of 302 residues (22-residue signal peptide removed; precursor 324 aa), N-terminal MBP tag (pMAL-c5X) kept, E. coli K12 TB1, amylose resin; forward primer F2 encodes MVEQGA
As to the kind of experiment: purified protein. Format: biochemical, Oreochromis niloticus. Particulars: substrate 5-25 mM, pH and temperature of the kinetic runs not stated (50 mM acetate; optimum pH 5.0, 50 °C; standard assay 37 °C).

What is called Km is the substrate concentration at which the rate is half of its maximum. By kcat is commonly meant the maximal rate divided by the concentration of active sites.

Chain of (r)OnTRAP5b (Oreochromis niloticus) (chain, as listed by the source): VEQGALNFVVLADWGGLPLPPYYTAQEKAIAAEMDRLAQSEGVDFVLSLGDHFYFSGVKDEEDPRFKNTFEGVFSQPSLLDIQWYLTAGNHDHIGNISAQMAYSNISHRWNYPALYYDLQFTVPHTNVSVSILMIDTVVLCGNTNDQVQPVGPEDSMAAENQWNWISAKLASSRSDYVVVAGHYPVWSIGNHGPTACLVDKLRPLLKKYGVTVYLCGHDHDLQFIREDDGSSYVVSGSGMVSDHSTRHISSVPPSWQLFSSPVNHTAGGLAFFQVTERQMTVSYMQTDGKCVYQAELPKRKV

For (r)OnTRAP5b (Oreochromis niloticus), the Michaelis-Menten constant (Km) was 2112 µM and the kcat was 0.27 s⁻¹.
